To fix the notation:
B1: His-MinD (B. subtilis MinD, N-terminally His-tagged) [B. subtilis] / itself (parent)
chain: MGEAIVITSGKGGVGKTTTSANLGTALAILGKRVCLVDTDIGLRNLDVVMGLENRIIYDLVDVVEGRCKMHQALVKDKRFDDLLYLMPAAQTSDKTAVAPEQIKNMVQELKQEFDYVIIDCPAGIEQGYKNAVSGADKAIVVTTPEISAVRDADRIIGLLEQEENIEPPRLVVNRIRNHLMKNGDTMDIDEIVQHLSIDLLGIVADDDEVIKASNHGEPIAMDPKNRASIAYRNIARRILGESVPLQVLEEQNKGMMAKIKSFFGVRS

For three variants, elution volume results are on record in PMC13246001, “Membrane binding controls the ATPase cycle and localization of MinD in Bacillus subtilis” (eLife, 2026).

The assay covers variants of B1. Briefly: gel filtration (size-exclusion chromatography), self-association. The settings on record: with itself; purification buffers supplied with excess Mg2+-ADP; read off a plot.
As for MGEAIVITSGKVGVGKTTTSANLGTALAILGKRVCLVDTDIGLRNLDVVMGLENRIIYDLVDVVEGRCKMHQALVKDKRFDDLLYLMPAAQTSDKTAVAPEQIKNMVQELKQEFDYVIIDCPAGIEQGYKNAVSGADKAIVVTTPEISAVRDADRIIGLLEQEENIEPPRLVVNRIRNHLMKNGDTMDIDEIVQHLSIDLLGIVADDDEVIKASNHGEPIAMDPKNRASIAYRNIARRILGESVPLQVLEEQNKGMMAKIKSFFGVRS [chain 1 G12V], the elution volume amounted to 16.1 mL.

On to MGEAIVITSGKGGVGKTTTSANLGTALAILGKRVCLVDTAIGLRNLDVVMGLENRIIYDLVDVVEGRCKMHQALVKDKRFDDLLYLMPAAQTSDKTAVAPEQIKNMVQELKQEFDYVIIDCPAGIEQGYKNAVSGADKAIVVTTPEISAVRDADRIIGLLEQEENIEPPRLVVNRIRNHLMKNGDTMDIDEIVQHLSIDLLGIVADDDEVIKASNHGEPIAMDPKNRASIAYRNIARRILGESVPLQVLEEQNKGMMAKIKSFFGVRS [chain 1 D40A], for which the elution volume was determined as 15.8 mL.

For the variant MGEAIVITSGKGGVGATTTSANLGTALAILGKRVCLVDTDIGLRNLDVVMGLENRIIYDLVDVVEGRCKMHQALVKDKRFDDLLYLMPAAQTSDKTAVAPEQIKNMVQELKQEFDYVIIDCPAGIEQGYKNAVSGADKAIVVTTPEISAVRDADRIIGLLEQEENIEPPRLVVNRIRNHLMKNGDTMDIDEIVQHLSIDLLGIVADDDEVIKASNHGEPIAMDPKNRASIAYRNIARRILGESVPLQVLEEQNKGMMAKIKSFFGVRS [chain 1 K16A], the elution volume came to 15.7 mL.
